The text below walks through data of article PMC9723941.

This assay deals with GFPuv (heat-aggregated). Nature of the assay: BLI; aggregated GFPuv as the sensor-bound substrate; Ssa1 and Ydj1 in solution; As(III) at the aggregation step (Fig. S3A).

Chain of Ssa1 (P10591 whole entry): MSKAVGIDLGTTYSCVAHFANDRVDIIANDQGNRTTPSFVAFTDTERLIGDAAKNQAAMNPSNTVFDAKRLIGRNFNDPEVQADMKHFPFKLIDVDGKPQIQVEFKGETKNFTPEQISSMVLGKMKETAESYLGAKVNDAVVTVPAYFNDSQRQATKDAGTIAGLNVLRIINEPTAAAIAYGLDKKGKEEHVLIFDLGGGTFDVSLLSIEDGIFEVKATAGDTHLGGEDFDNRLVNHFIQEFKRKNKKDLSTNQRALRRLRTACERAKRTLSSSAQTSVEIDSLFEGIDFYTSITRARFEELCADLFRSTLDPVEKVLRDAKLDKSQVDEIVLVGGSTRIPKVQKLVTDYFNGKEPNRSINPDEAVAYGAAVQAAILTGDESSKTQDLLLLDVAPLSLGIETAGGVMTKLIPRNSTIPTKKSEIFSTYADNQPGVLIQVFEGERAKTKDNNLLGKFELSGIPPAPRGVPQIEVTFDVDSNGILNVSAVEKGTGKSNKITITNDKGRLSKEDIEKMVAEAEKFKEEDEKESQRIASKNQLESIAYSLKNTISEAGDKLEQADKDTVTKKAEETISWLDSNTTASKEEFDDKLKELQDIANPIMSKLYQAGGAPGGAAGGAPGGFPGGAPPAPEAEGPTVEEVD
Chain of Ydj1 (P25491 whole entry): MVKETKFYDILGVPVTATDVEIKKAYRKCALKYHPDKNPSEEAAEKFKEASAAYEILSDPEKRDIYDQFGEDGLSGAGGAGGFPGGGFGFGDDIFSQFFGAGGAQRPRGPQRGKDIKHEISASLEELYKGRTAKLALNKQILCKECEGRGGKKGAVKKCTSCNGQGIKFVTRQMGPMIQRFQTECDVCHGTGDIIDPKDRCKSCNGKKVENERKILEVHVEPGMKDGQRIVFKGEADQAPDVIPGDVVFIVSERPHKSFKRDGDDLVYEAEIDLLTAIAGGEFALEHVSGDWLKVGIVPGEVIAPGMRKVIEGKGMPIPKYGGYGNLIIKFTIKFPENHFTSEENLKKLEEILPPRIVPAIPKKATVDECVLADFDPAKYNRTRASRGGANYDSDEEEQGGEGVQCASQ

As for “Ssa1 (from UniProt P10591 1-642) (natural protein)”, the reduction of binding to aggregates generated in the presence of 1 mM As(III), against aggregates generated without As(III) was 30%.
For “Ydj1 (from UniProt P25491 1-409) (natural protein)”, the reduction of binding to aggregates generated in the presence of 1 mM As(III), against aggregates generated without As(III) amounted to 30%.
